# Experimental data: article PMC8348223, “Direct Measurement of the Affinity between tBid and Bax in a Mitochondria-Like Membrane” (International Journal of Molecular Sciences, 2021)
# B1: Bax 47C labelled with HyLite488 (Bax-HyLite488) (natural protein, human, UniProt Q07812 1-192, looked up)
# chain: MDGSGEQPRGGGPTSSEQIMKTGALLLQGFIQDRAGRMGGEAPELACDPVPQDASTKKLSEALKRIGDELDSNMELQRMIAAVDTDSPREVFFRVAADMFSDGNFNWGRVVALFYFASKLVLKALATKVPELIRTIMGWTLDFLRERLLGWIQDQGGWDGLLSYFGTPTWQTVTIFVAGVLTASLTIWKKMG
# modifications: HyLite488 bound by maleimide chemistry to the cysteine at position 47
# notes: full-length human Bax; the two endogenous cysteines (62 and 126) are replaced with alanine, and leucine 47 is changed to cysteine; Labelling efficiency 81%; also called Bax-HiLyte488
# Molecular target: the molecule itself
# Assay: single particle fluorescence intensity (stoichiometry) analysis of confocal images; same bilayer and images as a1; event intensity normalised by the monomer brightness measured by FCS and binned into putative monomers, dimers, etc.
protein,measurement,value
B1,binding result,binds
